Measured values as given in PMC2808246, “Mycobacterial Nucleoside Diphosphate Kinase Blocks Phagosome Maturation in Murine Raw 264.7 Macrophages” (PLoS ONE, 2010).

T1: Rab5a GTPase, recombinant, GTP-loaded (UniProt P20339 1-215)
T1 sequence: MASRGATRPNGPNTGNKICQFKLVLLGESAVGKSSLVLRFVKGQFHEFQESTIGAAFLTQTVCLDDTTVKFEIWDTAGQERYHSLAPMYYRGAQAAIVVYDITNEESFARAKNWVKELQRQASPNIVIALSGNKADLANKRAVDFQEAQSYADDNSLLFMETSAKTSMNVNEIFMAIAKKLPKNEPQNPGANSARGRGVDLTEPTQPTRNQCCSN

B1: Mycobacterium smegmatis nucleoside diphosphate kinase (Ndk), recombinant (enzyme)
chain: MTERTLVLIKPDGVKRQLVGEILSRIERKGLTLAALELKNVSDDLARQHYAEHADKPFFGSLLEFITSGPLVAAIVEGPRAVAAFRQIAGGTDPVEKAVPGTIRGDFALITQDNLVHGSDSPESAAREIALWFPGEATA
B2: Mycobacterium tuberculosis nucleoside diphosphate kinase (Ndk), recombinant (enzyme)
chain: MTERTLVLIKPDGIERQLIGEIISRIERKGLTIAALQLRTVSAELASQHYAEHEGKPFFGSLLEFITSGPVVAAIVEGTRAIAAVRQLAGGTDPVQAAAPGTIRGDFALETQFNLVHGSDSAESAQREIALWFPGA

Experiments:
[1] = molecular target: T1, Rab5a GTPase, recombinant, GTP-loaded; assay: cell-based or functional assay
[2] = molecular target: Rab7 GTPase, recombinant, GTP-loaded (UniProt P51149 1-207); assay: cell-based or functional assay
Sequence of Rab7 GTPase, recombinant, GTP-loaded (P51149 whole entry): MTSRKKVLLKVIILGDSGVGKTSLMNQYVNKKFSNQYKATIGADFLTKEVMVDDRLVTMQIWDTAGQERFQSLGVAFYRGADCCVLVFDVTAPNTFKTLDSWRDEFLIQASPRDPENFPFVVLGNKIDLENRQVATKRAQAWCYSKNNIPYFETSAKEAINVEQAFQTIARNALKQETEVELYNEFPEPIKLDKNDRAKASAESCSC

Binder | GAP activity: reduction of [γ-32P]GTP bound to Rab5 spotted on nitrocellulose, after 2 h with 10 µg/ml Ndk, relative to untreated [1] [%] | GAP activity: depletion of the gamma phosphate of [γ-32P]GTP bound to Rab5 spotted on nitrocellulose, after 2 h with 10 µg/ml Ndk, relative to untreated [1] [%] | GAP activity: depletion of the gamma phosphate of [γ-32P]GTP bound to Rab7 spotted on nitrocellulose, after 2 h with 10 µg/ml Ndk, relative to untreated [2] [%]
B1 | 35 | – | –
B2 | – | 95 | 90
